The values that follow come from publication PMC3320896.

The target in this test is recombinant Hepatitis B surface antigen (rHBsAg) virus-like particle, S form of HBsAg (Hepatitis B virus). Nature of the test: cryo-EM structure; redox-treated rHBsAg VLPs in vitrified ice; 3D reconstruction with octahedral symmetry imposed, nominal resolution ~1.5 nm (FSC0.5); monomers counted from the volume of segmented protein density.

With “recombinant Hepatitis B surface antigen (rHBsAg) virus-like particle, S form of HBsAg (natural protein)”, the stoichiometry N (protein monomers per particle) is 96.
